Legend:
Assay in all cases: SEC; purified mutant TNFα alone on a size exclusion column; single peak; column and buffer not given
[1] = molecular target: mTNFα mutant 1, [Q6R, N7T, S8P]mTNF-α(1–156) (mouse)
[2] = molecular target: mTNFα mutant 2, [Q6R, N7T, S8P, A52S, D53E]mTNF-α(1–156) (mouse)
[3] = molecular target: mTNFα mutant 3, [S30N, Q31R]mTNF-α(1–156) (mouse)
[4] = molecular target: mTNFα mutant 4, [D71S, Y72H, ins 71_T_72]mTNF-α(1–156) (mouse)
[5] = molecular target: mTNFα mutant 5, [P101Q, K102R, D103E, L110A]mTNF-α(1–156) (mouse)
[6] = molecular target: mTNFα mutant 6, D71S, Y72H, ins 71_T_72, P101Q, K102R,D103E,L110A]mTNF-α(1–156) (mouse)
[7] = molecular target: mTNFα mutant 7, [E88T]mTNF-α(1–156) (mouse)
[8] = molecular target: mTNFα mutant 8, [L137R, K139D]mTNF-α(1–156) (mouse)
[9] = molecular target: mTNFα mutant 9, [H20P, V22A, E24G, E27Q]mTNF-α(1–156) (mouse)
[10] = molecular target: mTNFα mutant 10, [H20P, V22A, E24G, E27Q, S30N, Q31R, L137R, K139D]mTNF-α(1–156) (mouse)
[11] = molecular target: mTNFα mutant 11, [Q130R]mTNF-α(1–156) (mouse)
[12] = molecular target: mTNFα mutant 12, [D42E, K44R, F82I, I84V, E88T, Q130R]mTNF-α(1–156) (mouse)
[13] = molecular target: mTNFα mutant 13, [M41V, V58I, V79I, V96I, V135I, V153I]mTNF-α(1–156) (mouse)
[14] = molecular target: mTNFα mutant 14, [H20P, V22A, E24G, E27Q, M41V, V58I, V79I, V96I, V135I, V153I]mTNF-α(1–156) (mouse)
[15] = molecular target: mTNFα mutant 15, [H20P, V22A, E24G, E27Q, S30N, Q31R, M41V, V58I, V79I, V96I, V135I, L137R, K139D, V153I]mTNF-α(1–156) (mouse)
[16] = molecular target: mTNFα mutant 16, [L1V, Q6R, N7T, S8P, H20P, V22A, E24G, E27Q, S30N, Q31R, M41V, V58I, V79I, V96I, V135I, L137R, K139D, V153I]mTNF-α(1–156) (mouse)
[17] = molecular target: mTNFα mutant 17, [L1V, Q6R, N7T, S8P, H20P, V22A, E24G, E27Q, S30N, Q31R, M41V, D42E, K44R, A52S, D53E, V58I, V79I, F82I, I84V, E88T, V96I, Q130R, V135I, L137R, K139D, V153I]mTNF-α(1–156) (mouse)
[18] = molecular target: mTNFα mutant 18, [L1V, Q6R, N7T, S8P, H20P, V22A, E24G, E27Q, S30N, Q31R, M41V, V58I, V79I, V96I, V135I, V153I]mTNF-α(1–156) (mouse)
[19] = molecular target: mTNFα mutant 19, [L1V, Q6R, N7T, S8P, H20P, V22A, E24G, E27Q, S30N, Q31R, M41V, D42E, K44R, V58I, V79I, V96I, P101Q, K102R, D103E, L110A, V135I, L137R, K139D, V153I]mTNF-α(1–156) (mouse)
[20] = molecular target: mTNFα mutant 20, [L1V, Q6R, N7T, S8P, H20P, V22A, E24G, E27Q, S30N, Q31R, M41V, D42E, K44R, V58I, D71S, Y72H, ins 71_T_72, V79I, V96I, P101Q, K102R, D103E, L110A, V135I, L137R, K139D, V153I]mTNF-α(1–156) (mouse)

mTNFα mutant 1, [Q6R, N7T, S8P]mTNF-α(1–156) (natural protein)
stoichiometry N [1]: 3

mTNFα mutant 2, [Q6R, N7T, S8P, A52S, D53E]mTNF-α(1–156) (natural protein)
stoichiometry N [2]: 3

mTNFα mutant 3, [S30N, Q31R]mTNF-α(1–156) (natural protein)
stoichiometry N [3]: 3

mTNFα mutant 4, [D71S, Y72H, ins 71_T_72]mTNF-α(1–156) (natural protein)
stoichiometry N [4]: 3

mTNFα mutant 5, [P101Q, K102R, D103E, L110A]mTNF-α(1–156) (natural protein)
stoichiometry N [5]: 3

mTNFα mutant 6, D71S, Y72H, ins 71_T_72, P101Q, K102R,D103E,L110A]mTNF-α(1–156) (natural protein)
stoichiometry N [6]: 3

mTNFα mutant 7, [E88T]mTNF-α(1–156) (natural protein)
stoichiometry N [7]: 3

mTNFα mutant 8, [L137R, K139D]mTNF-α(1–156) (natural protein)
stoichiometry N [8]: 3

mTNFα mutant 9, [H20P, V22A, E24G, E27Q]mTNF-α(1–156) (natural protein)
stoichiometry N [9]: 3

mTNFα mutant 10, [H20P, V22A, E24G, E27Q, S30N, Q31R, L137R, K139D]mTNF-α(1–156) (natural protein)
stoichiometry N [10]: 3

mTNFα mutant 11, [Q130R]mTNF-α(1–156) (natural protein)
stoichiometry N [11]: 3

mTNFα mutant 12, [D42E, K44R, F82I, I84V, E88T, Q130R]mTNF-α(1–156) (natural protein)
stoichiometry N [12]: 3

mTNFα mutant 13, [M41V, V58I, V79I, V96I, V135I, V153I]mTNF-α(1–156) (natural protein)
stoichiometry N [13]: 3

mTNFα mutant 14, [H20P, V22A, E24G, E27Q, M41V, V58I, V79I, V96I, V135I, V153I]mTNF-α(1–156) (natural protein)
stoichiometry N [14]: 3

mTNFα mutant 15, [H20P, V22A, E24G, E27Q, S30N, Q31R, M41V, V58I, V79I, V96I, V135I, L137R, K139D, V153I]mTNF-α(1–156) (natural protein)
stoichiometry N [15]: 3

mTNFα mutant 16, [L1V, Q6R, N7T, S8P, H20P, V22A, E24G, E27Q, S30N, Q31R, M41V, V58I, V79I, V96I, V135I, L137R, K139D, V153I]mTNF-α(1–156) (natural protein)
stoichiometry N [16]: 3

mTNFα mutant 17, [L1V, Q6R, N7T, S8P, H20P, V22A, E24G, E27Q, S30N, Q31R, M41V, D42E, K44R, A52S, D53E, V58I, V79I, F82I, I84V, E88T, V96I, Q130R, V135I, L137R, K139D, V153I]mTNF-α(1–156) (natural protein)
stoichiometry N [17]: 3

mTNFα mutant 18, [L1V, Q6R, N7T, S8P, H20P, V22A, E24G, E27Q, S30N, Q31R, M41V, V58I, V79I, V96I, V135I, V153I]mTNF-α(1–156) (natural protein)
stoichiometry N [18]: 3

mTNFα mutant 19, [L1V, Q6R, N7T, S8P, H20P, V22A, E24G, E27Q, S30N, Q31R, M41V, D42E, K44R, V58I, V79I, V96I, P101Q, K102R, D103E, L110A, V135I, L137R, K139D, V153I]mTNF-α(1–156) (natural protein)
stoichiometry N [19]: 3

mTNFα mutant 20, [L1V, Q6R, N7T, S8P, H20P, V22A, E24G, E27Q, S30N, Q31R, M41V, D42E, K44R, V58I, D71S, Y72H, ins 71_T_72, V79I, V96I, P101Q, K102R, D103E, L110A, V135I, L137R, K139D, V153I]mTNF-α(1–156) (natural protein)
stoichiometry N [20]: 3
